The target of the test is T1, Extradenticle (Exd), residues 237-310 of isoform A (homeodomain and ten further residues) (Drosophila).
T1 chain: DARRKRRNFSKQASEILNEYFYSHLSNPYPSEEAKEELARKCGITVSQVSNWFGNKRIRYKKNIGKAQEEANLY
Put plainly: crystal structure.

B1: Abdominal-B (AbdB), residues 146-229 of isoform A (W motif, linker and homeodomain) (domain or fragment)
chain: not shown
For the molecule B1, the binding result was “binds”.

The record behind these values is PMC6166240 (Cell reports, 2018).
